According to patent CN118388640A (CHENZHOU NO 1 PEOPLES HOSPITAL, dated 2024):

Target: T1, SARS-CoV-2 Omicron BA.1突变株 S蛋白 (Sino Biological，货号:40589-V08B33) (SARS-CoV-2 Omicron BA.1突变株)
T1 construct: also called Omicron BA.1 S蛋白
Assay: ELISA, S protein coated, antibody titrated from 10 μg/mL

B1: 抗新型冠状病毒SARS-CoV-2的广谱抗体(VSM12-37) (antibody, V domains shown)
VH: EVQLVESGGGLVQPGGSLRLSCAVSGFTVSSNYMSWVRQAPGKGLEWVSLIYSGGSTYYADSVKGRFTVSRDRSKNTLYLQMNSLRAEDTALYYCARDNPRVGSNYWGQGTLVTVSS
VL: DIQMTQSPSSLSASVGDRVTITCQASQDINNYLNWYQQKPGKAPKLLIYDASNLEAGVPSRFSGSGSGTDFTFTISSLQPEDIATYYCQQCDNVPLTFGGGTKVEIKR
notes: also called VSM12-37抗体
  EC50: > 5 mg/L
